# Measurements published in patent publication US20250313627A1 (FUSE BIOTHERAPEUTICS, published 2025).
# Changes are numbered by the printed parent chain.
# B1: FUSE608 (humanized CD3 clone 1F3.3 x humanized clone 5A1-FA9-HK1) (bispecific antibody)
# heavy: EVQLVESGGGLVQPGGSLRLSCAASGFTFSTYAMNWVRQAPGKGLEWVARIRSKYNNYATYYADSVKDRFTISRDDSKNTLYLQMNSLRAEDTAVYYCARHGNFGNSYVSWFAYWGQGTMVTVSSASTKGPSVFPLAPSSKSTSGGTAALGCLVKDYFPEPVTVSWNSGALTSGVHTFPAVLQSSGLYSLSSVVTVPSSSLGTQTYICNVNHKPSNTKVDKKVEPKSCDKTHTCPPCPAPEAAGGPSVFLFPPKPKDTLMISRTPEVTCVVVDVSHEDPEVKFNWYVDGVEVHNAKTKPREEQYNSTYRVVSVLTVLHQDWLNGKEYKCKVSNKALPAPIEKTISKAKGQPREPQVYTLPPSREEMTKNQVSLSCAVKGFYPSDIAVEWESNGQPENNYKTTPPVLDSDGSFFLVSKLTVDKSRWQQGNVFSCSVMHEALHNRFTQKSLSLSPGK
# VHH-Fc: EVQLLESGGGLVQPGGSLRLSCTASGYTNRLKCMGWFRQAPGKEREEIASISTGTGNTYYADSVKGRFTISRDKSRNTLYLQMNTLRAEDTAVYYCAADVRPHGTTCHYNSRGQGTQVTVSSEPKSSDKTHTCPPCPAPEAAGGPSVFLFPPKPKDTLMISRTPEVTCVVVDVSHEDPEVKFNWYVDGVEVHNAKTKPREEQYNSTYRVVSVLTVLHQDWLNGKEYKCKVSNKALPAPIEKTISKAKGQPREPQVYTLPPSREEMTKNQVSLWCLVKGFYPSDIAVEWESNGQPENNYKTTPPVLDSDGSFFLYSKLTVDKSRWQQGNVFSCSVMHEALHNHYTQKSLSLSPGK
# light: QAVVTQEPSLTVSPGGTVTLTCRSSTGAVTTSNYANWVQQKPGQAPRGLIGGTNKRAPGTPARFSGSLLGGKAALTLSGVQPEDEAEYYCALWYSNLWVFGGGTKLTVLGQPKAAPSVTLFPPSSEELQANKATLVCLISDFYPGAVTVAWKADSSPVKAGVETTTPSKQSNNKYAASSYLSLTPEQWKSHRSYSCQVTHEGSTVEKTVAPTECSGGGGSGGGGSGGGGSGGGGSEVQLLESGGGLVQPGGSLRLSCTASGYTNRLKCMGWFRQAPGKEREEIASISTGTGNTYYADSVKGRFTISRDKSRNTLYLQMNTLRAEDTAVYYCAADVRPHGTTCHYNSRGQGTQVTVSS
# B2: FUSE-394 (bispecific antibody, human IgG1, lambda, L234A L235A)
# chain: QVQLQESGGGSVQAGGSLKLSCTASGYTNRLKCMGWFRQAPGKEREEIATISTGTGNTYYADSVKGRFTFSQDKVKNTVYLQMNTLKPDDTGMYYCAADVRPDGTTCHYNSGGQGTQVTVSSEPKSSDKTHTCPPCPAPEAAGGPSVFLFPPKPKDTLMISRTPEVTCVVVDVSHEDPEVKFNWYVDGVEVHNAKTKPREEQYNSTYRVVSVLTVLHQDWLNGKEYKCKVSNKALPAPIEKTISKAKGQPREPQVYTLPPSREEMTKNQVSLSCAVKGFYPSDIAVEWESNGQPENNYKTTPPVLDSDGSFFLVSKLTVDKSRWQQGNVFSCSVMHEALHNRFTQKSLSLSPGK
# heavy: B1 heavy with S374W, A376L, V415Y, R443H, F444Y
# light: QAVVTQEPSLTVSPGGTVTLTCRSSTGAVTTSNYANWVQQKPGQAPRGLIGGTNKRAPGTPARFSGSLLGGKAALTLSGVQPEDEAEYYCALWYSNLWVFGGGTKLTVLGQPKAAPSVTLFPPSSEELQANKATLVCLISDFYPGAVTVAWKADSSPVKAGVETTTPSKQSNNKYAASSYLSLTPEQWKSHRSYSCQVTHEGSTVEKTVAPTECSGGGGSGGGGSGGGGSGGGGSQVQLQESGGGSVQAGGSLKLSCTASGYTNRLKCMGWFRQAPGKEREEIATISTGTGNTYYADSVKGRFTFSQDKVKNTVYLQMNTLKPDDTGMYYCAADVRPDGTTCHYNSGGQGTQVTVSS
# notes: Hole chain: 5A1-Fc; knob chain: anti-CD3 Fab heavy chain-Fc; light chain: anti-CD3 light chain-linker-5A1; also called format 13cA incorporating the 5A1 ROR1-specific VHH
# Legend:
# human CD3 on T cells [1] = biological target: T1, human CD3 on T cells (human, UniProt P07766 23-207; P09693 23-182; P04234 22-171; P20963 22-164); assay: flow cytometry on CD3+ Jurkat NFAT Lucia cells, secondary antibody to the IgG1 Fc
# T1 construct: whole, on cells; also called human CD3 on Jurkat T cells; human CD3 on T cells isolated from human PBMC
# T1 sequence (P07766 23-207, chain 1 of 4): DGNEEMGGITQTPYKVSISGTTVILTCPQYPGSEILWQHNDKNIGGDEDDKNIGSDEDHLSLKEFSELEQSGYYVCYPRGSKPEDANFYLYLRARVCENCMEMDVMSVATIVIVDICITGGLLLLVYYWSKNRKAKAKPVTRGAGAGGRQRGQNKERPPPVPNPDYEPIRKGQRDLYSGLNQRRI
# T1 sequence (P09693 23-182, chain 2 of 4): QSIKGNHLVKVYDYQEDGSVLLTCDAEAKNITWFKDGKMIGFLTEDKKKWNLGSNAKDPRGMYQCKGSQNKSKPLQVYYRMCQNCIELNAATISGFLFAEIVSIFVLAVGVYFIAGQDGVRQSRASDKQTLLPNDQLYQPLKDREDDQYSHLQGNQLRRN
# T1 sequence (P04234 22-171, chain 3 of 4): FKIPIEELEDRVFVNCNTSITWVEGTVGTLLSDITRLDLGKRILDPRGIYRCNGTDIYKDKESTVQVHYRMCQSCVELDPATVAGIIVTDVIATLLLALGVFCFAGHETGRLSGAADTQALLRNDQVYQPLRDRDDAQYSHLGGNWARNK
# T1 sequence (P20963 22-164, chain 4 of 4): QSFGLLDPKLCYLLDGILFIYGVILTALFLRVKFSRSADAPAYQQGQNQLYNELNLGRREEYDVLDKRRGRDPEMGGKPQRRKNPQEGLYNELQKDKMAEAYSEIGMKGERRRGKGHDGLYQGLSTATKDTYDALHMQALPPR
# [2] = biological target: T2, human ROR1 (Receptor Tyrosine Kinase-Like Orphan Receptor 1) on the cell surface (human, UniProt Q01973 30-937); assay: cell-based or functional assay
# T2 sequence (Q01973 30-937): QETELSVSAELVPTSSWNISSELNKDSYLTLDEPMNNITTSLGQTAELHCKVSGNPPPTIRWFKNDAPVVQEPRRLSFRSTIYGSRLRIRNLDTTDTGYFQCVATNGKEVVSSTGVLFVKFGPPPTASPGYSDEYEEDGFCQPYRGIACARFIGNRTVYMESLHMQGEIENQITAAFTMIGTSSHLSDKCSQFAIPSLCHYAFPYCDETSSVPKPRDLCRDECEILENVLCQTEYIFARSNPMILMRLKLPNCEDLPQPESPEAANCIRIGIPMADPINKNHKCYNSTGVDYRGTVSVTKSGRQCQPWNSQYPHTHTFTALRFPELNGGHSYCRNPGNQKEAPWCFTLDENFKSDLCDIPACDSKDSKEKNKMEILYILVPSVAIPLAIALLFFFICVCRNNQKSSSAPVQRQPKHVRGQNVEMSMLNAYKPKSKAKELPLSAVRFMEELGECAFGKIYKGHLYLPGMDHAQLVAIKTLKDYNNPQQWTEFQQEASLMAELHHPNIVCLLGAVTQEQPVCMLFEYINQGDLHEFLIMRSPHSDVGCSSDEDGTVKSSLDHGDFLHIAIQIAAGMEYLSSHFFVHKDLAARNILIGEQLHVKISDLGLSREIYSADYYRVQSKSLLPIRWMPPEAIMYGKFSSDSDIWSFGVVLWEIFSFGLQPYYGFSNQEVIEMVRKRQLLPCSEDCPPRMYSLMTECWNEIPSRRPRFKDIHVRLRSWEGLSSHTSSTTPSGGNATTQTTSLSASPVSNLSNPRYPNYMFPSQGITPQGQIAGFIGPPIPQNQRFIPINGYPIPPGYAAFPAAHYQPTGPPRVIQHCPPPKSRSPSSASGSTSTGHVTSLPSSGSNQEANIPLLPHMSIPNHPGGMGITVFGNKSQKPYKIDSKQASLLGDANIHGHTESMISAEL
# [3] = biological target: T2, human ROR1 (Receptor Tyrosine …); assay: flow cytometry on ROR1+ MDA-MB-231 cells, secondary antibody to the IgG1 Fc; table row 'Binding EC50 (nM)', the graph's axis reads 'Concentration (pM)'
# [4] = biological target: T2, human ROR1 (Receptor Tyrosine …); assay: flow cytometry on MDA-MB-231 variants, high ROR1 density; high cell surface density of ROR1
# Protocol: (§1) Binding of 2A11 (black line), 5A1 (dark grey line) and VHH8 (medium grey line) were tested in TCE format 12A. The commercial ROR1 specific Ab reported to bind the ROR1-Ig domain 2A2 (light grey line), served as the positive control and anti-HEL (dotted black line) served as the negative control. To better visualize binding of each test article to the three cells lines, we plotted MFI on the y-axis for each test article for HEK-293 cells (negative control; FIG. 4I), HEK-293 cells transfected with full length human ROR1 (FIG. 4J) and HEK-293 cells transfected with the ROR1 Ig domain linked to the cell surface via the GPI linker from CD59 (FIG. 4K).
# (§2) Adherent target cells were collected by brief TrypLE treatment while suspension cells were directly collected. Collected cells were washed once with PBS by centrifugation at 500×g for 5 minutes at room temperature and added to V-bottom 96-well plate (200,000-300,000 cells per well). To prepared Live/Dead fixable red, one vial of powder was dissolved into 50 uL of DMSO to make stock solution and then diluted 1 uL of stock Live/Dead fixable red in 1 mL of PBS to prepare the working solution. 100 uL of Live/Dead fixable red working buffer was then added to the cell in the V-bottom 96-well plate (200,000-300,000 cells per well) and incubated for 15 minutes at room temperature. […] The samples were then analyzed on Cytek flow cytometer.
# [5] = biological target: T2, human ROR1 (Receptor Tyrosine …); assay: flow cytometry on MDA-MB-231 ROR1 normal cells (about 35,000 ROR1 per cell), secondary antibody to the IgG1 Fc
# Protocol: as §1
# as §2, with “temperature. After the 15-minute incubation, the cells were washed twice with PBS by centrifugation at 500 g for 5 minutes at room temperature. The cells were then cultured with antibodies at different concentrations in 100 uL of Biolegend staining buffer at 4° C. for 45 minutes. After the 45-minute incubation with primary antibody, the cells were washed with PBS by centrifugation at 500 g for 5 minutes at room temperature. The cells were then cultured with PE-Cy7-conjugated mouse-anti-human IgG secondary antibody in Biolegend staining buffer at 4° C. for 45 minutes.” for “temperature.”
# [6] = biological target: T3, recombinant His tagged human ROR1 (human, UniProt Q01973 30-403, limits assumed); assay: BLI (Octet), FUSE protein loaded on the biosensor, His tagged ROR1 in solution
# T3 construct: Analyte in the BLI assay; also called Human ROR1-His; recombinant ROR1
# T3 sequence (Q01973 30-403 limits assumed): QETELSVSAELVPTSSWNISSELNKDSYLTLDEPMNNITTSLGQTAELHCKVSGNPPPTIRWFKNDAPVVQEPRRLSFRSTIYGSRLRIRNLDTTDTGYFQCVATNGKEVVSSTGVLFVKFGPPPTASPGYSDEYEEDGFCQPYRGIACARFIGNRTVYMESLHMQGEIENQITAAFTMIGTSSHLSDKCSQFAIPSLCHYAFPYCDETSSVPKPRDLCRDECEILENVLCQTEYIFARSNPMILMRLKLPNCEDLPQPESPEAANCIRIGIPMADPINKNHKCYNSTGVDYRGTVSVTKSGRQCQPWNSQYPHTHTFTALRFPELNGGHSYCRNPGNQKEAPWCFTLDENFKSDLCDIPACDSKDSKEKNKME
# Protocol: (§3) As shown in FIGS. 5A-5D, the binding affinities (KD) of TCEs for ROR1 were assessed. We examined the magnitude by which several TCEs and mutants thereof bind to recombinant ROR1. Kinetic binding graphs were generated via Bio-Layer Interferometry (BLI) using an Octet system. For each TCE, the biosensor tips were coated with FUSE proteins at 15 μg/ml and probed with either recombinant His tagged ROR1 at concentrations ranging from 100 pM to 10 μM. […] The binding affinity (KD), on rate (k-on) and off rate (k-dis), are summarized for ROR1 in FIG. 5D.
# (§4) Antibodies were prepared in 1×PBS with 0.02% Tween-20 with the final concentration of 15 ug/ml. Human ROR1-His or CD3e-His protein were also prepared, and serial diluted (4-fold dilution ranging from 400 nM to 0.098 nM) in 1×PBS with 0.02% Tween-20. The biosensors were pre-moistened in 200 uL of 1×PBS with 0.02% Tween-20 for 10 minutes. Meanwhile, Octet BLI system (ForteBio) was prewarmed for 30 minutes and the flow rate was set to 1000 rpm. The biosensors (Anti-hIgG Fc Capture biosensor) were soaked in 250 uL of 1×PBS with 0.02% Tween-20 for 60 seconds at 30° C. to get an initial baseline reading. After the 60-second baseline reading, the biosensors were exposed to testing antibody for 300 seconds at 30° C. for the association between antibody and the biosensors (coupling antibody with biosensor). The biosensors with antibody were then exposed to human ROR1 or CD3e in 250 uL of 1×PBS with 0.02% Tween-20 at 30° C. for 300 seconds for the association reaction between antibody and human ROR1 or CD3e (association curve). After 300-second association reaction between antibody and antigen, the biosensors with antibody and antigen were then exposed to 250 uL of 1×PBS with 0.02% Tween-20 at 30° C. for 300 seconds for the dissociation reaction between antibody and […]. The binding affinity was calculated by the built-in data fitting algorithm.
# [7] = biological target: T4, cynomolgus (NHP) CD3 on cynomolgus pan-T cells (cynomolgus); assay: flow cytometry on cynomolgus pan T cells, fluorescent secondary antibody to the IgG1 Fc; table row 'Binding EC50 (Kd)'
# T4 construct: whole, on cells; also called cynomolgus CD3
# Protocol: (§5) The CD3-specific Fab binding arm is presumed responsible for the observed binding. A Hen Egg Lysozyme (HEL)-specific antibody was used as the negative isotype control. Binding was measured via flow cytometry at various concentrations of test articles using a fluorescently labeled secondary antibody specific for the Fc domain of IgG1. The apparent affinity calculated for each test subject based on the data is shown under each graph. […] Binding to mouse CD3 was not tested because the anti-CD3 clone, 1F3-3, incorporated into the TCE is a humanized variant of clone SP34, which was derived in mouse and is well described as not binding mouse CD3.
# as §2
# human CD3 on T cells [8] = biological target: T1, human CD3 on T cells; assay: flow cytometry on human pan T cells (T cells isolated from human PBMC), fluorescent secondary antibody to the IgG1 Fc; table row 'Binding EC50 (Kd)'
# Protocol: as §5, §2
# [9] = biological target: T4, cynomolgus (NHP) CD3 on cynomolgus …; assay: flow cytometry on cynomolgus pan-T cells
# Protocol: as §5, §2
# [10] = biological target: T3, recombinant His tagged human ROR1; assay: BLI (Octet), FUSE protein loaded on the biosensor, His tagged ROR1 in solution; column 'kdis(1/s)'
# Protocol: as §3, §4
# [11] = biological target: T5, mouse ROR1 on mouse 4T1 cells (mouse, UniProt Q9Z139 30-937); assay: flow cytometry on 4T1 cells expressing mouse ROR1
# T5 construct: whole, on cells
# T5 sequence (Q9Z139 30-937): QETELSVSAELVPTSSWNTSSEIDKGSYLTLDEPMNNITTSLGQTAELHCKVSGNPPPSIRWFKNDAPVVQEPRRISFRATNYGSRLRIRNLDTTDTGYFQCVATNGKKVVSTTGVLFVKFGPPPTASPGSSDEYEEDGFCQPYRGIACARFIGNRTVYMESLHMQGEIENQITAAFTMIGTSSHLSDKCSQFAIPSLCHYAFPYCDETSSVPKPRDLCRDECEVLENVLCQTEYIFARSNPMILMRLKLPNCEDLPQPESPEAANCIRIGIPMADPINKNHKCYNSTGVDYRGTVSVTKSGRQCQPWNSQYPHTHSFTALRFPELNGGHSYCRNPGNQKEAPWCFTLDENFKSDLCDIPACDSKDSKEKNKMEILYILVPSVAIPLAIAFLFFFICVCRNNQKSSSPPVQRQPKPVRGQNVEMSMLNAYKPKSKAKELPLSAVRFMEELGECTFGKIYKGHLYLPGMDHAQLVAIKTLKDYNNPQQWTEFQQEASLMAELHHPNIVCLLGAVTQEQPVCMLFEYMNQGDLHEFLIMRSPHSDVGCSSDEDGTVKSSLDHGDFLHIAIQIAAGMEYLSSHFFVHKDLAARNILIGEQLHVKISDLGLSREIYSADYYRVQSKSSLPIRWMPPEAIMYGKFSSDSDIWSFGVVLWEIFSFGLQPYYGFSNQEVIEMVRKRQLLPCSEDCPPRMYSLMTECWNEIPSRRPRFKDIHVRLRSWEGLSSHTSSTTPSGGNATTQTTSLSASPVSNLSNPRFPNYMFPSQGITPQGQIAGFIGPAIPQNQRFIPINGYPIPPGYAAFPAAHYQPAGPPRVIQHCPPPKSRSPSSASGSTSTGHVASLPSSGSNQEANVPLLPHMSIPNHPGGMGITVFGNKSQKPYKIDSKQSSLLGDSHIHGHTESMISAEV
# [12] = biological target: T2, human ROR1 (Receptor Tyrosine …); assay: flow cytometry on MDA-MB-231 ROR1 high cells (about 500,000 ROR1 per cell), secondary antibody to the IgG1 Fc
# Protocol: as §1
# as §2, with “temperature. After the 15-minute incubation, the cells were washed twice with PBS by centrifugation at 500 g for 5 minutes at room temperature. The cells were then cultured with antibodies at different concentrations in 100 uL of Biolegend staining buffer at 4° C. for 45 minutes. After the 45-minute incubation with primary antibody, the cells were washed with PBS by centrifugation at 500 g for 5 minutes at room temperature. The cells were then cultured with PE-Cy7-conjugated mouse-anti-human IgG secondary antibody in Biolegend staining buffer at 4° C. for 45 minutes.” for “temperature.”
# human CD3 on T cells [13] = biological target: T1, human CD3 on T cells; assay: flow cytometry on Jurkat T cells, fluorescent secondary antibody to the IgG1 Fc; table row 'Binding EC50 (Kd)'
# Protocol: as §5, §2
# [14] = biological target: T2, human ROR1 (Receptor Tyrosine …); assay: flow cytometry on MDA-MB-231 variants, low ROR1 density; low cell surface density of ROR1
# Protocol: as §1, §2
# [15] = biological target: T2, human ROR1 (Receptor Tyrosine …); assay: flow cytometry on MDA-MB-231 ROR1 low cells (about 17,000 ROR1 per cell), secondary antibody to the IgG1 Fc
# Protocol: as §1
# as §2, with “temperature. After the 15-minute incubation, the cells were washed twice with PBS by centrifugation at 500 g for 5 minutes at room temperature. The cells were then cultured with antibodies at different concentrations in 100 uL of Biolegend staining buffer at 4° C. for 45 minutes. After the 45-minute incubation with primary antibody, the cells were washed with PBS by centrifugation at 500 g for 5 minutes at room temperature. The cells were then cultured with PE-Cy7-conjugated mouse-anti-human IgG secondary antibody in Biolegend staining buffer at 4° C. for 45 minutes.” for “temperature.”
# [16] = biological target: T2, human ROR1 (Receptor Tyrosine …); assay: flow cytometry on MDA-MB-231 ROR1 super high cells (about 2,000,000 ROR1 per cell), secondary antibody to the IgG1 Fc
# Protocol: as §1
# as §2, with “temperature. After the 15-minute incubation, the cells were washed twice with PBS by centrifugation at 500 g for 5 minutes at room temperature. The cells were then cultured with antibodies at different concentrations in 100 uL of Biolegend staining buffer at 4° C. for 45 minutes. After the 45-minute incubation with primary antibody, the cells were washed with PBS by centrifugation at 500 g for 5 minutes at room temperature. The cells were then cultured with PE-Cy7-conjugated mouse-anti-human IgG secondary antibody in Biolegend staining buffer at 4° C. for 45 minutes.” for “temperature.”
Binder,EC50 (human CD3 on T cells [1]),"fold decrease in T cell mediated IFNγ release with ROR1+ MDA-MB-231, potency against FUSE399 [2]",EC50 [3],EC50 [4],EC50 [5],Kd [6],kon [6],EC50 [7],EC50 (human CD3 on T cells [8]),"fold difference in apparent binding affinity, cynomolgus against human CD3 [9]",koff [10],binding result [11],EC50 [12],EC50 (human CD3 on T cells [13]),EC50 [14],EC50 [15],EC50 [16]
B1,8.18 nM,~25 fold,2.9 nM,,,,,,,,,,,,,,
B2,,,,~5 nM,154 nM,56.9 nM,28700 M⁻¹ s⁻¹,7.46 nM,10.5 nM,< 2 fold,0.00163 s⁻¹,no binding,19.5 nM,10.6 nM,~100 nM,69.7 nM,6.1 nM
